Biological target: SOD1-His (not stated (human or mouse cDNA cloned)) (UniProt P00441)
Sequence (P00441 whole entry): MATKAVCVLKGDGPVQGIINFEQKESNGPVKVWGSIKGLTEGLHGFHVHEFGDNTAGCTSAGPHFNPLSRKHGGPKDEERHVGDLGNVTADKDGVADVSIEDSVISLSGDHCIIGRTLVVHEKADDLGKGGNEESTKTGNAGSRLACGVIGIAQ

Sequence of YWHAE protein purified by His tag from Pichia pastoris (P62258 whole entry): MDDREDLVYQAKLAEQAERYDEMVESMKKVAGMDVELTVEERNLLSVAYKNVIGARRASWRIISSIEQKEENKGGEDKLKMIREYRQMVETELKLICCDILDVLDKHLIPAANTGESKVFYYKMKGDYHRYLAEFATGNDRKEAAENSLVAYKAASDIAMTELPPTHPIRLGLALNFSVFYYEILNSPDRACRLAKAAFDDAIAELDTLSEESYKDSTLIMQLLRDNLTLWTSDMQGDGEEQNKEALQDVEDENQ

Substance: YWHAE protein purified by His tag from Pichia pastoris (from UniProt P62258 1-255) (natural protein)
- SOD1 activity of purified SOD1 incubated with purified YWHAE at 1:1 for 0-15 h at 4 °C in SOD1 activity assay buffer, against SOD1 plus buffer; value at 4 h: 40%

— publication PMC9966940
